Results published in patent US20030186441A1 (MORPHOTEK, published 2003).

Biological target: T1, full length hMLH1 protein (human, UniProt P40692 2-756)
T1 construct: also called MLH1 (human)
T1 sequence: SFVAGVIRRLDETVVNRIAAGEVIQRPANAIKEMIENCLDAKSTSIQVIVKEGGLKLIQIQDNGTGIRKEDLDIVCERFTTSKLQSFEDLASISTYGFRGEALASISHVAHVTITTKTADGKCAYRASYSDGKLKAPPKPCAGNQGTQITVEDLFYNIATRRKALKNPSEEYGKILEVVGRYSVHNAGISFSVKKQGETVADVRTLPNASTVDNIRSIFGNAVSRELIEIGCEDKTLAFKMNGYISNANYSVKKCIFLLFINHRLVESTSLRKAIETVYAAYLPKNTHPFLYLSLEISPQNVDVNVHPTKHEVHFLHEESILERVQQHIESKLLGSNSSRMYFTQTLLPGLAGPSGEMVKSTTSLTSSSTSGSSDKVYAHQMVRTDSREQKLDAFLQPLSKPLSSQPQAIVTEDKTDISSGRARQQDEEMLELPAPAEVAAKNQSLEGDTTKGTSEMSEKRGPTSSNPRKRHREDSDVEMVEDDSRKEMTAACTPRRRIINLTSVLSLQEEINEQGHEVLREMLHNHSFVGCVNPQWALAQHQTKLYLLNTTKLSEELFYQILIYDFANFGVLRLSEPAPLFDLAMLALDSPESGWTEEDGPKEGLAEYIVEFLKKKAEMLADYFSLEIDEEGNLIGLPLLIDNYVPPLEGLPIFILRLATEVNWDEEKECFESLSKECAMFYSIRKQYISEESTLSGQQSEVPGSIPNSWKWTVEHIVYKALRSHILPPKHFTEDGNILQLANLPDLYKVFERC
Assay: co-immunoprecipitation of in vitro translated proteins with anti-hMLH1 mAb; converse experiment with N terminal hPMS2 antibody
Excerpt: […]. […] Lane 6 contains a nonprogrammed reticulocyte lysate. In both panels A and B, autoradiographs of immunoprecipitated products are shown. When a 35S labelled, full-length hMLH1 protein (FIG. 3A, lane 5) was mixed with the unlabelled carboxyl terminal hPMS2 polypeptide, a monoclonal antibody (mAb) to the carboxyl terminus of hPMS2 efficiently immunoprecipitated the labeled hMLH1 protein (lane 1). No hMLH1 protein was precipitated in the absence of hPMS2 (lane 2). Conversely, when the 35S labelled carboxyl terminus of hPMS2 (lane 3) was incubated with unlabelled, full length hMLH1 protein, an anti hMLH1 mAb precipitated the hPMS2 polypeptide (lane 4). In the absence of the unlabelled hMLH1 protein, no hPMS2 protein was precipitated by this mAb (lane 6).
Immunoprecipitation. Immunoprecipitations were performed on in vitro translated proteins by mixing the translation reactions with 1 μg of the MLH1 specific monoclonal antibody (mAB) MLH14 (Oncogene Science, Inc.), a polyclonal antibody generated to codons 2-20 of hPMS2 described above, or a polyclonal antibody generated to codons 843-862 of hPMS2 (Santa Cruz Biotechnology, Inc.) in […] of EBC buffer (50 mM Tris, pH 7.5, 0.1 M NaCl, 0.5% NP40). […]

binding result: no binding
B1: hPMS2-134 (containing codons 1-134 of hPMS2) (other)
chain: MERAESSSTEPAKAIKPIDRKSVHQICSGQVVLSLSTAVKELVENSLDAGATNIDLKLKDYGVDLIEVSDNGCGVEEENFEGLTLKHHTSKIQEFADLTQVETFGFRGEALSSLCALSDVTISTCHASAKVGTR
